The results in this text go back to patent US20210347900A1 (AstraZeneca / MedImmune, published 2021).

Assay [1] deals with T1, rat LOX1-(FlagHis) extracellular domain (rat, UniProt O70156 55-364).
T1 construct: extracellular domain
Kind of assay: IgG binding ELISA on coated antigen, europium anti-human IgG detection.

For assay [2], the target named is T2, mouse LOX1-(FlagHis) extracellular domain (mouse, UniProt Q9EQ09 55-363).
T2 construct: extracellular domain
Described as above.

The target of assay [3] is T3, rabbit LOX1-(FlagHis) extracellular domain (rabbit, UniProt Q9XTA8 55-274).
T3 construct: extracellular domain
Described as above.

The target of the next assay is T4, Human CLEC-4L (DC-SIGN) (human, UniProt Q9NNX6 62-404).
T4 construct: Bought protein; also called C-type lectin domain family 4 member L
T4 sequence (looked up): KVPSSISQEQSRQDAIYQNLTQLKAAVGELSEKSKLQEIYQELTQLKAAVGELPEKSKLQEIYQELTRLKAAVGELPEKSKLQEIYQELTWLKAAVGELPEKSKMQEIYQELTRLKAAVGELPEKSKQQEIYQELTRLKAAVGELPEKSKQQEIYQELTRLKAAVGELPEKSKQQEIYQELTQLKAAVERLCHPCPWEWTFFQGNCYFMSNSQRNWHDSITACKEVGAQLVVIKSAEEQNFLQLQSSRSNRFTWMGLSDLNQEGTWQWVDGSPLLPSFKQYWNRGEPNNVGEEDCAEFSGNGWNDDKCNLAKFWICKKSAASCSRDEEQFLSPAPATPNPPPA
Kind of assay: IgG binding ELISA on coated antigen, absorbance at 450 nm.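 Also: specificity panel of related human receptors, coated alongside human LOX1 as the binding positive control, with an isotype human IgG1-TM antibody setting the nonspecific background.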

For a further assay, the target named is T5, Human CLEC-1B (CLEC-2) (human, UniProt Q9P126 58-229, limits assumed).
T5 construct: Bought protein; also called C-type lectin domain family 1 member B
Described as above.

The target of another assay is T6, Human SR-B3 (CD36) (human, UniProt P16671 30-439).
T6 construct: Bought protein; also called Platelet glycoprotein 4
The description is as above.

Another assay has as its target T7, Human CLEC-7A (Dectin-1) (human, UniProt Q9BXN2-2 66-201, limits assumed).
T7 construct: Bought protein; also called C-type lectin domain family 7 member A
T7 sequence (looked up): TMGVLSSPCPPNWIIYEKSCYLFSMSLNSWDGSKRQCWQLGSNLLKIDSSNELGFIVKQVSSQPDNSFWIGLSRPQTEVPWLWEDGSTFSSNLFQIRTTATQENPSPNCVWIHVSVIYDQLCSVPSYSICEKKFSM
Described as above.

The target of the next assay is T8, Human SR-A1 (MSR) (human, UniProt P21757 77-451).
T8 construct: Bought protein; also called Macrophage scavenger receptor types I and II
T8 sequence (looked up): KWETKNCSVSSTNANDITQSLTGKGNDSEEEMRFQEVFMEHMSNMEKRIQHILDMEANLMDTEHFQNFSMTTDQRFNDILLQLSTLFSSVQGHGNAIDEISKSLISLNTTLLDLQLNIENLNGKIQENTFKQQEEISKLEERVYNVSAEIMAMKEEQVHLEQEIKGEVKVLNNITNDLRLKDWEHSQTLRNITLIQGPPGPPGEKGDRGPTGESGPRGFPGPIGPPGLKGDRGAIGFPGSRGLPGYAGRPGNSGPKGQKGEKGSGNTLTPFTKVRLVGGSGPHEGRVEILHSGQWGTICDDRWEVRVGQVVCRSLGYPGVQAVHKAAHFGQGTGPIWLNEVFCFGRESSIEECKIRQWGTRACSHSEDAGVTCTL
The assay is described as above.

The target in another assay is T9, Human CLEC-1A (human, UniProt Q8NC01 74-280, limits assumed).
T9 construct: Bought protein; also called C-type lectin domain family 1 member A
T9 sequence (looked up): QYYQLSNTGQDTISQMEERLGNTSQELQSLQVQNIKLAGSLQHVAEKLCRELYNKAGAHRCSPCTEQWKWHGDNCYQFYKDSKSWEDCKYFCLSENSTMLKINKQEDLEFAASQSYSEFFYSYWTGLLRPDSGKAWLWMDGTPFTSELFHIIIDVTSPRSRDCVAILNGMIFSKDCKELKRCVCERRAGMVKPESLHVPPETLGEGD
The assay is described as above.

Assay [4] has as its target T10, human LOX1 SNP K167N variant on cells (K167N SNP transfected CHO TREX cells) (human, UniProt P78380 1-273).
T10 construct: whole, on cells; also called hLOX1 K167N; K167N hLOX1 CHO
The experiment in a line: competition with DyLight 649 oxLDL on human LOX1 K167N CHO TREX cells, FMAT.

The target of assay [5] is T11, recombinant human LOX1 (R&D Systems) (human, UniProt P78380 61-273). Kind of assay: competition with biotin CRP on plate-bound recombinant human LOX1, DELFIA.
Assay [6] has as its target T12, cynomolgus LOX1-(FlagHis) extracellular domain (cynomolgus monkey, UniProt A0A2K5VQ73 76-291).
T12 construct: extracellular domain; Made in HEK293 EBNA cells; also called cynoLOX1; cyLOX
Kind of assay: Biacore, antibody captured on protein G, LOX1 ECD as analyte.

Assay [7] addresses T11, recombinant human LOX1 (R&D Systems). The experiment in a line: competition with biotin CRP on immobilised recombinant hLOX1 (DELFIA), mean.
Assay [8] addresses T13, human LOX1 on cells (human LOX1 transfected CHO TREX cells) (human, UniProt P78380 1-273).
T13 construct: whole, on cells; also called hLOX1 transfected cells; hLOX1 CHO
Kind of assay: competition with DyLight 649 oxLDL on hLOX1 CHO TREX cells (FMAT), mean; mean of n = 3.

The target of assay [9] is T13, human LOX1 on cells (human LOX1 …). Kind of assay: competition with DyLight 649 oxLDL on human LOX1 CHO TREX cells, FMAT.
Assay [10] deals with T10, human LOX1 SNP K167N variant on cells …. Kind of assay: competition with DyLight 649 oxLDL on K167N hLOX1 CHO TREX cells (FMAT), mean.
Assay [11] addresses T13, human LOX1 on cells (human LOX1 …). The experiment in a line: cell-based or functional assay.
Assay [12] shares this target. Kind of assay: competition with DyLight 649 AGE-BSA on hLOX1 CHO TREX cells (FMAT), mean.

Changes are numbered by the printed parent chain. In names and notes the source's numbering stands.

T5 sequence (Q9P126 58-229 limits assumed): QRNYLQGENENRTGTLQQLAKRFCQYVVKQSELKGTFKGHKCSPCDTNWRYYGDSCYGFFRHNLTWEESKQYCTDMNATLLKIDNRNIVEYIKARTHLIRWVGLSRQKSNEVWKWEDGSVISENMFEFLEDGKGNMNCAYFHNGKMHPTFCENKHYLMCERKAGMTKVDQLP
T3 sequence (Q9XTA8 55-274): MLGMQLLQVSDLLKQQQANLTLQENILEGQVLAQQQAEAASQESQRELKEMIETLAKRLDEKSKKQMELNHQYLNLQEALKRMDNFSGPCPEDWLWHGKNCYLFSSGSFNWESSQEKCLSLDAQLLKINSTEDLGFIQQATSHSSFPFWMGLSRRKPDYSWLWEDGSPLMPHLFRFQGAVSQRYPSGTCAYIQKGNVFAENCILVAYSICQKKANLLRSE
T6 sequence (P16671 30-439 limits assumed): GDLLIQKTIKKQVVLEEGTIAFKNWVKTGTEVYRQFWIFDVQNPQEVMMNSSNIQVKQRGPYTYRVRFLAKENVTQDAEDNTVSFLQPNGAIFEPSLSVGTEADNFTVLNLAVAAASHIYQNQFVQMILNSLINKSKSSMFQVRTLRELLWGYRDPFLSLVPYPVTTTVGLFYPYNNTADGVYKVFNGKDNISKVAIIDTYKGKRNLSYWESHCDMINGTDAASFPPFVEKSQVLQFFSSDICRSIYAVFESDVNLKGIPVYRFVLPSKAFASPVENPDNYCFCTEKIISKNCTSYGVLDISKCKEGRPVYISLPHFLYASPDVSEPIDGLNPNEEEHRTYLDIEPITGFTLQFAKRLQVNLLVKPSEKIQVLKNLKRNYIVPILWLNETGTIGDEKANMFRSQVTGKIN
T2 sequence (Q9EQ09 55-363): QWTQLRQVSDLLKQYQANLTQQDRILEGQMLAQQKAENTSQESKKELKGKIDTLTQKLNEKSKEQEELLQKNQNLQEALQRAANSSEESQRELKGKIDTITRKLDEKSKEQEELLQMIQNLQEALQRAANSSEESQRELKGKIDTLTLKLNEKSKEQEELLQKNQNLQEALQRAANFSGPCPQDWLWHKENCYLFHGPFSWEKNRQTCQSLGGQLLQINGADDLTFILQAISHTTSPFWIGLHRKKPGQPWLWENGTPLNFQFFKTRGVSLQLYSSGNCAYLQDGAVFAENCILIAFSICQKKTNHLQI
T1 sequence (O70156 55-364): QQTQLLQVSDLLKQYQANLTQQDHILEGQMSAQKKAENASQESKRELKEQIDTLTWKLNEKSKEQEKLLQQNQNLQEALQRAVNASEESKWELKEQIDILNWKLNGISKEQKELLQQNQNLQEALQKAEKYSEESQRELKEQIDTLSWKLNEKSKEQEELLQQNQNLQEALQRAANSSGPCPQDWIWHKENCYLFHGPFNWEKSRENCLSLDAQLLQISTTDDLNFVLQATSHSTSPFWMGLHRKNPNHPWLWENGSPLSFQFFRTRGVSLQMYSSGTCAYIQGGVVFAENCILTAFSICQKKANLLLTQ

B1: LX6960073_gl IgG1-TM (antibody, V domains shown)
VH: EVQLVESGGGLVQPGRSLRLSCAASGFTSDDYAMHWVRQAPGKGLEWVSGISWNSGSIGYADSVKGRFTISRDNAKNSLYLQMNGLRAEDTAVYYCAREGSWNYDALDIWGQGTMVTVSS
VL: QSALTQPASVSGSPGQPITISCTGTSSDVGGYNYVSWYQQHPGKAPKLMIYDVSKRPSGVSNRFSGSKSGNTASLTISGLQAEDEADYYCMGGMGRSTNWVFGGGTKLTVL
notes: Whole human IgG1-TM, germlined
As to B1, the binding result in [1] was “no binding (tested: 10 µg/mL (single concentration))”; in assay [2] it was “no binding (tested: 10 µg/mL (single concentration))”; in assay [3] it was “no binding (tested: 10 µg/mL (single concentration))”; with Human CLEC-4L (DC-SIGN), “no binding”; with Human CLEC-1B (CLEC-2), “no binding”; with Human SR-B3 (CD36) it was “no binding”. Moreover, the binding result with Human CLEC-7A (Dectin-1), in the assay with Human SR-A1 (MSR) and with Human CLEC-1A was “no binding” in each case.

B2: LX5140110 IgG1-TM (antibody, V domains shown)
VH: QVQLVQSGAEVKKPGASVKVSCKVSGYTLTELSMHWVRQAPGKGLEWMGGFDPEDFKYHTHQKFQGRVTMTEDTSTDTAYMELSSLRSEDTAVYYCALVWGTQGKGVRGWDYYYGMDVWGQGTTVTVSS
VL: QSVVTQPPSVSGAPGQRVTISCTGSSSNIGAGYDVHWYQQLPGTAPKLLIYGNSNRPSGVPDRFSGSKSGTSASLAITGLQAEDEADYYCQSYDSSLSGWVFGGGTKLTVL
notes: Whole human IgG1-TM (L234F/L235E/P331S); also called LOX514110; LOX514_110
As for B2, the “IC50 (read off the curve)” value in assay [4] was ~0.4 nM; in assay [5], ~5 nM; in [9], ~1 nM. This molecule also gave a Kd in [6] of 0.154 nM. This molecule displayed a koff in assay [6] of 0.000168 s⁻¹. In assay [6], this molecule showed a kon of 1.09e+06 M⁻¹ s⁻¹. In addition, the IC50 in assay [7] came out at 5.02 nM; in assay [8], 0.105 nM; in [10] it was 0.492 nM; in assay [12], 0.0207 nM. The binding result is listed as “no binding (tested: 10 µg/mL (single concentration))” in assay [1]; “no binding (tested: 10 µg/mL (single concentration))” in assay [2]; “binds” in assay [3]; “no binding” with Human CLEC-4L (DC-SIGN); “no binding” with Human CLEC-1B (CLEC-2); “no binding” in the assay with Human SR-B3 (CD36). The binding result with Human CLEC-7A (Dectin-1), in the assay with Human SR-A1 (MSR) and in the assay with Human CLEC-1A was “no binding” throughout. Besides, the “ROS ASSAY (IC50, mean)” value in assay [11] is 1.98 nM. Besides, in assay [11], the “oxLDL/hLOX1 CHO Internalisation (IC50, mean)” value is 0.312 nM.

B3: LX5140108 IgG1-TM (antibody, V domains shown)
VH: B2 VH with F56W, K57S, Y58N, T60V, H61S, A97L, L98T, V99S, W100T, T102R
VL: B2 VL
notes: Whole human IgG1-TM (L234F/L235E/P331S)
On to B3, for which the binding result is reported as “no binding (tested: 10 µg/mL (single concentration))” in assay [1]; “no binding (tested: 10 µg/mL (single concentration))” in assay [2]; “binds” in assay [3]; “no binding” with Human CLEC-4L (DC-SIGN); “no binding” in the assay with Human CLEC-1B (CLEC-2); “no binding” with Human SR-B3 (CD36). Moreover, the binding result with Human CLEC-7A (Dectin-1), with Human SR-A1 (MSR) and with Human CLEC-1A was “no binding” in each case.

B4: LX5140093_N>D IgG1-TM (antibody, V domains shown)
VH: B2 VH with F56W, K57A, T60Q, H61A, L98T, V99P, W100D, T102Q
VL: B2 VL with L97H, S98R, G99A, V101A
notes: Whole human IgG1-TM; Heavy chain N96D (Kabat) variant of LX5140093; also called LX5140093_D
On to B4, for which the binding result in assay [1] was “no binding (tested: 10 µg/mL (single concentration))”; in assay [2], “no binding (tested: 10 µg/mL (single concentration))”; in assay [3], “no binding (tested: 10 µg/mL (single concentration))”; in the assay with Human CLEC-4L (DC-SIGN) it was “no binding”; with Human CLEC-1B (CLEC-2), “no binding”; in the assay with Human SR-B3 (CD36) it was “no binding”. Besides, the binding result in the assay with Human CLEC-7A (Dectin-1), with Human SR-A1 (MSR) and in the assay with Human CLEC-1A was “no binding” in each case.

B5: LX5140092_N>D IgG1-TM (antibody, V domains shown)
VH: B2 VH with F56W, T60L, H61S, L98T, V99P, W100D, Q103H, G104Q, K105G
VL: B2 VL
notes: Whole human IgG1-TM; Heavy chain N96D (Kabat) variant of LX5140092; also called LX5140092_D
In the case of B5, the binding result in [1] is recorded as “no binding (tested: 10 µg/mL (single concentration))”; in [2], “no binding (tested: 10 µg/mL (single concentration))”; in [3], “binds”; with Human CLEC-4L (DC-SIGN) it was “no binding”; with Human CLEC-1B (CLEC-2), “no binding”; with Human SR-B3 (CD36) it was “no binding”. Besides, the binding result with Human CLEC-7A (Dectin-1), with Human SR-A1 (MSR) and with Human CLEC-1A was “no binding” throughout.
